Laboratory results from US20230293638A1 (Eli Lilly, published 2023).
Residue numbers refer to the chain shown, from its start. Numbered stars: 1 amine (or outer) side, 2 acyl side, 3 side chain; on linkers, the order of the positions; unused ones are H or OH. Square brackets hold non-standard residues; d marks the D form. Side chains are listed from the residue outwards. Ends that are not written are not given here. * marks the point of attachment. C20 diacid = O=C(O)CCCCCCCCCCCCCCCCCCC(=O)*; γGlu = O=C(O)[C@H](CCC(=O)[*:2])N[*:1]; AEEA = NCCOCCOCC(=O)O; Aib = CC(C)(N)C(=O)O

B1: Peptide 264 (peptide)
peptide: YXEGTXTSDXSIXLDXKAQXEFIXXLIEGGPSSG
modifications: Aib2; αMeF(2F)6; 4Pal10; αMeL13; Orn16; K17((2-[2-(2-Amino-ethoxy)-ethoxy]-acetyl)2-(γGlu)-CO-(CH2)16-CO2H); Aib20; D-Glu24; αMeY25; C-terminal NH2
B2: Peptide 31 (peptide)
peptide: Y[Aib]EGTFTSDYSILLDKIAK([AEEA-AEEA-γGlu-C20 diacid])[Aib]AFIEYLIEGGPSSGAPPPS-NH2
modifications: N-terminus assumed
SMILES: CC[C@H](C)[C@H](NC(=O)[C@H](CCCCN)NC(=O)[C@H](CC(=O)O)NC(=O)[C@H](CC(C)C)NC(=O)[C@H](CC(C)C)NC(=O)[C@@H](NC(=O)[C@H](CO)NC(=O)[C@H](Cc1ccc(O)cc1)NC(=O)[C@H](CC(=O)O)NC(=O)[C@H](CO)NC(=O)[C@@H](NC(=O)[C@H](Cc1ccccc1)NC(=O)[C@@H](NC(=O)CNC(=O)[C@H](CCC(=O)O)NC(=O)C(C)(C)NC(=O)[C@@H](N)Cc1ccc(O)cc1)[C@@H](C)O)[C@@H](C)O)[C@@H](C)CC)C(=O)N[C@@H](C)C(=O)N[C@@H](CCCCNC(=O)COCCOCCNC(=O)COCCOCCNC(=O)CC[C@H](NC(=O)CCCCCCCCCCCCCCCCCCC(=O)O)C(=O)O)C(=O)NC(C)(C)C(=O)N[C@@H](C)C(=O)N[C@@H](Cc1ccccc1)C(=O)N[C@H](C(=O)N[C@@H](CCC(=O)O)C(=O)N[C@@H](Cc1ccc(O)cc1)C(=O)N[C@@H](CC(C)C)C(=O)N[C@H](C(=O)N[C@@H](CCC(=O)O)C(=O)NCC(=O)NCC(=O)N1CCC[C@H]1C(=O)N[C@@H](CO)C(=O)N[C@@H](CO)C(=O)NCC(=O)N[C@@H](C)C(=O)N1CCC[C@H]1C(=O)N1CCC[C@H]1C(=O)N1CCC[C@H]1C(=O)N[C@@H](CO)C(N)=O)[C@@H](C)CC)[C@@H](C)CC
B3: Peptide 247 (peptide)
peptide: YXEGTXTSDYSIXLDXKAQXEFIXYLIEGGPSSGAPPPS
modifications: not fully specified; Aib2; αMeF(2F)6; Aib13; Orn16; K17((2-[2-(2-Amino-ethoxy)-ethoxy]-acetyl)2-(γGlu)-CO-(CH2)16-CO2H); Aib20; D-Glu24; C-terminal NH2
B4: Peptide 249 (peptide)
peptide: B3 peptide
modifications: not fully specified; Aib2; αMeF(2F)6; Nle13; Orn16; K17((2-[2-(2-Amino-ethoxy)-ethoxy]-acetyl)2-(γGlu)-CO-(CH2)16-CO2H); Aib20; D-Glu24; C-terminal NH2
B5: Peptide 248 (peptide)
peptide: B3 peptide with X13L
modifications: not fully specified; Aib2; αMeF(2F)6; Orn16; K17((2-[2-(2-Amino-ethoxy)-ethoxy]-acetyl)2-(γGlu)-CO-(CH2)16-CO2H); Aib20; D-Glu24; C-terminal NH2
B6: Peptide 250 (peptide)
peptide: B3 peptide
modifications: Aib2; αMeF(2F)6; Aib13; Orn16; K17((2-[2-(2-Amino-ethoxy)-ethoxy]-acetyl)2-(γGlu)-CO-(CH2)18-CO2H); Aib20; D-Glu24; C-terminal NH2
B7: Peptide 251 (peptide)
peptide: B3 peptide with Y10X, E21A, Y25X
modifications: Aib2; αMeF(2F)6; 4Pal10; αMeL13; Orn16; K17((2-[2-(2-Amino-ethoxy)-ethoxy]-acetyl)2-(εK)-CO-(CH2)18-CO2H); Aib20; D-Glu24; αMeY25; C-terminal NH2
B8: Peptide 32 (peptide)
peptide: Y[Aib]EGTFTSDYSILLDKIAQ[Aib]K([AEEA-AEEA-γGlu-C20 diacid])FIEYLIEGGPSSGAPPPS-NH2
modifications: N-terminus assumed
SMILES: CC[C@H](C)[C@H](NC(=O)[C@H](CCCCN)NC(=O)[C@H](CC(=O)O)NC(=O)[C@H](CC(C)C)NC(=O)[C@H](CC(C)C)NC(=O)[C@@H](NC(=O)[C@H](CO)NC(=O)[C@H](Cc1ccc(O)cc1)NC(=O)[C@H](CC(=O)O)NC(=O)[C@H](CO)NC(=O)[C@@H](NC(=O)[C@H](Cc1ccccc1)NC(=O)[C@@H](NC(=O)CNC(=O)[C@H](CCC(=O)O)NC(=O)C(C)(C)NC(=O)[C@@H](N)Cc1ccc(O)cc1)[C@@H](C)O)[C@@H](C)O)[C@@H](C)CC)C(=O)N[C@@H](C)C(=O)N[C@@H](CCC(N)=O)C(=O)NC(C)(C)C(=O)N[C@@H](CCCCNC(=O)COCCOCCNC(=O)COCCOCCNC(=O)CC[C@H](NC(=O)CCCCCCCCCCCCCCCCCCC(=O)O)C(=O)O)C(=O)N[C@@H](Cc1ccccc1)C(=O)N[C@H](C(=O)N[C@@H](CCC(=O)O)C(=O)N[C@@H](Cc1ccc(O)cc1)C(=O)N[C@@H](CC(C)C)C(=O)N[C@H](C(=O)N[C@@H](CCC(=O)O)C(=O)NCC(=O)NCC(=O)N1CCC[C@H]1C(=O)N[C@@H](CO)C(=O)N[C@@H](CO)C(=O)NCC(=O)N[C@@H](C)C(=O)N1CCC[C@H]1C(=O)N1CCC[C@H]1C(=O)N1CCC[C@H]1C(=O)N[C@@H](CO)C(N)=O)[C@@H](C)CC)[C@@H](C)CC

Molecular target: human GLP-1 receptor (human, UniProt P43220 24-463)
Test: cell-based or functional assay

Q: With B1 as the binder, how does the “hGLPIR cAMP EC50 ratio” value read?
A: Its value is 3.19.

Q: Which “hGLPIR cAMP EC50 ratio” value does the source give for B2 here?
A: Its value is 0.0708.

Q: How did the “hGLPIR cAMP EC50 ratio” value turn out when B3 was run?
A: Its value is 0.614.

Q: Which “hGLPIR cAMP EC50 ratio” value does the source give for B4 here?
A: The value was 0.778.

Q: For B5, which “hGLPIR cAMP EC50 ratio” value is on record?
A: Its value is 0.8.

Q: Which “hGLPIR cAMP EC50 ratio” value does the source give for B6 here?
A: Its value is 0.985.

Q: How did the “hGLPIR cAMP EC50 ratio” value turn out when B7 was run?
A: The value was 1.37.

Q: For B8, which “hGLPIR cAMP EC50 ratio” value is on record?
A: Its value is 0.136.
